Experimental data taken from IntAct's records for PubMed 20421493.

B1: Flagellar protein FliT (Salmonella typhimurium), P0A1N2 (parent)
chain: MTSTVEFINRWQRIALLSQSLLELAQRGEWDLLLQQEVSYLQSIETVMEKQTPPGITRSIQDMVAGYIKQTLDNEQLLKGLLQQRLDELSSLIGQSTRQKSLNNAYGRLSGMLLVPDAPGAS
partner: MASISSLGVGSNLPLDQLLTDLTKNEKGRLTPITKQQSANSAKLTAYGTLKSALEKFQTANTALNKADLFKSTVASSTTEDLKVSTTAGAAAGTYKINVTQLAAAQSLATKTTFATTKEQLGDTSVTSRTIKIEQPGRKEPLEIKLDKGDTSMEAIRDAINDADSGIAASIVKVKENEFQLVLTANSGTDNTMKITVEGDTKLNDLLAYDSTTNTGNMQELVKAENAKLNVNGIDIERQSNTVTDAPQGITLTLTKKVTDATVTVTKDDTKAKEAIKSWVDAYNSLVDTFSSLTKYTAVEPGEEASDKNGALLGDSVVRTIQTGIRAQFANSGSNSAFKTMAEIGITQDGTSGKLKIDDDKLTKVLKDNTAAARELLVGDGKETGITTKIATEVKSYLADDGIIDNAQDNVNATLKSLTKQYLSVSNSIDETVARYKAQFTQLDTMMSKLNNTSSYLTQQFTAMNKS

Variants of: B1
Conditions: with flid_salty fliD

Variant	effect of a mutation on the interaction
MTSTVEFINRWQRIALLSQSLLELAQRGEWDLLLQQEVSYLQSIETVMEKQTPPGITRSIQDMVAGYIKQTLDNAQLLKGLLQQRLDELSSLIGQSTRQKSLNNAYGRLSGMLLVPDAPGAS	decreasing interaction strength
MTSTVEFINRWQRIALLSQSLLELAQRGEWDLLLQQEVSYLQSIETVMEKQTPPGITRSIQDMVAGYIKQTLDNEQLLAGLLQQRLDELSSLIGQSTRQKSLNNAYGRLSGMLLVPDAPGAS	disrupting interaction strength
